In this assay the target is Human methylmalonyl-CoA epimerase, wild-type (human) (UniProt Q96PE7). Put plainly: not stated; solution data (Supplemental Fig. S2).

Usually stoichiometry N stands for the number of molecules, sites or subunits per partner or assembly. In turn, “Human methylmalonyl-CoA epimerase, wild-type (from UniProt Q96PE7 45-176) (enzyme)” registered a stoichiometry N of 2.

The values are drawn from paper PMC6525113.
